Experimental data published in US20140271651A1 (AbbVie / Abbott, published 2014).

What was measured:
bovine serum albumin = molecular target: T1, bovine serum albumin (bovine, UniProt P02769 25-607); experiment: sandwich EIA, rabbit anti-GP73 coated 1 ug/mL, BSA background, supernatant 1:125, HRP goat anti-mouse IgG Fc
T1 construct: also called BSA
Method: Cell supernatant samples were analyzed for anti-GP73 antibodies by EIA. Sheep anti-mouse IgG Fc (Jackson Immunoresearch) was coated on 96 well micro-titer EIA plates at 1 μg/mL. After the capture reagent was coated on the solid phase, it was removed and the plates were blocked using a BSA/PBS block solution. The wells were washed with distilled water and cell supernatants were added to the blocked plates and allowed to incubate at room temperature for at least one hour. A mouse monoclonal antibody 14H4-23 (Drexel University) was used a positive control. The anti-mouse IgG Fc captured the anti-GP73 mouse antibody from the supernatant. Following the incubation, the supernatants were washed off using distilled water. An irrelevant mouse-human chimeric antibody was added to all wells and incubated at room temperature for 30 min to block any captured mouse antibodies that react with the human IgG Fc fusion protein linked to the GP73 antigen. The wells were washed with distilled water and GP73-hFc was added to the plates at 200 ng/mL and incubated for 30 min. Following this incubation, the antigen was washed from the plates using distilled water. Biotin labeled goat anti-GP73 was added to the plates at 200 ng/mL and incubated for 30 min at room temperature. The plates were washed and streptavidin-HRPO (Jackson Immunoresearch) (diluted to approximately 200 ng/mL) was added to the plates and allowed to incubate for 30 min. The plates were washed with distilled water and OPD substrate was used as the chromagen to generate signal. Plates were read at 492 nm and the results were analyzed.
The 24 well cultures were then evaluated by EIA for their ability to form a sandwich with the rabbit anti-GP73 used as a capture reagent coated directly on the solid phase. The same EIA protocol previously described was used, except rabbit anti-GP73 antibody was coated at 1 μg/mL, the GP73-hFc was tested at 200 ng/mL, and a HRP labeled goat anti-mouse IgG FC antibody was used as the conjugate reagent to generate signal.

[1] = molecular target: T2, E. coli expressed human GP73 (amino acids 63 to 400) with C-terminal 6xHis tag (human, UniProt Q8NBJ4 64-401); experiment: Binds E. coli GP73 (summary table; EIA on coated E. coli GP73)
T2 construct: No human Fc, not glycosylated; also called GP73 produced in E. coli; E. coli GP73
T2 sequence: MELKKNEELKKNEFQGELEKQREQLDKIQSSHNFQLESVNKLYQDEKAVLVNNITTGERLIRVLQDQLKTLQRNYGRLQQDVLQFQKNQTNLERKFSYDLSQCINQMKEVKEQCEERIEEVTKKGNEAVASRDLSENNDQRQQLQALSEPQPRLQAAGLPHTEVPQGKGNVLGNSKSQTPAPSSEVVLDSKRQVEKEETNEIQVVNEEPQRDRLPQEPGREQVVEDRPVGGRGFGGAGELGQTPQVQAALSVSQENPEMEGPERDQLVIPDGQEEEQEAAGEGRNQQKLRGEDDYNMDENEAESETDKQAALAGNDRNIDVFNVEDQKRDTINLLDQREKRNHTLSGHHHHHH
Method: The purified anti-GP73 mAbs were tested for EIA reactivity to human IgG, GP73 produced in E. coli, and GP73-hFc produced in HEK 293 cells. A mouse-human chimeric antibody, GP73 produced in E. coli, and GP73-hFc produced in HEK 293 cells were coated on micro titer plates at approximately 1000 ng/mL and allowed to incubate over night at 4-8° C. After the capture reagent was coated on the solid phase, it was removed and blocked using a BSA/PBS block solution. The wells were washed with distilled water. Purified anti-GP73 and negative control mAbs were added to the blocked plates in serial dilutions starting at 1000 ng/mL and allowed to incubate at room temperature for approximately 30 min. The wells were washed with distilled water. Goat anti-mouse IgG-HRP (Jackson Immunoresearch) was added to the wells at approximately 250 ng/mL and allowed to incubate for approximately 30 min at room temperature. The plates were washed with distilled water and OPD substrate was used as the chromagen to generate signal. Plates were read at 492 nm and the results were analyzed.

[2] = molecular target: T2, E. coli expressed human GP73 (amino …); experiment: Western blot on E. coli expressed GP73 antigen
Method: The mammalian cell (HEK and CHO) expressed GP73-hFc or E. coli expressed GP73, as described above, were electrophoresed in a 4-20% SDS-PAGE gel. […] The nitrocellulose membrane was blocked with PBS buffer containing 5% non-fat dry milk and 0.05% Tween 20 for about 1 hr. The nitrocellulose membrane was incubated with an appropriate amount of anti-GP73 monoclonal antibody in 10 mL of 2.5% non-fat dry milk and 0.05% Tween 20 PBS buffer, pH 7.2. The nitrocellulose membranes were washed with 0.05% Tween 20/PBS, pH 7.2, incubated with goat anti-mouse IgG antibody conjugated with HRP for 1 hr at room temperature, and washed with 0.05% Tween 20/PBS buffer. Antibody bound to the GP73 protein was visualized by the addition of freshly prepared metal enhanced 3,3′-Diaminobenzidine in stable peroxide buffer (Pierce, Ill.).

T1 sequence (P02769 25-607 limits assumed): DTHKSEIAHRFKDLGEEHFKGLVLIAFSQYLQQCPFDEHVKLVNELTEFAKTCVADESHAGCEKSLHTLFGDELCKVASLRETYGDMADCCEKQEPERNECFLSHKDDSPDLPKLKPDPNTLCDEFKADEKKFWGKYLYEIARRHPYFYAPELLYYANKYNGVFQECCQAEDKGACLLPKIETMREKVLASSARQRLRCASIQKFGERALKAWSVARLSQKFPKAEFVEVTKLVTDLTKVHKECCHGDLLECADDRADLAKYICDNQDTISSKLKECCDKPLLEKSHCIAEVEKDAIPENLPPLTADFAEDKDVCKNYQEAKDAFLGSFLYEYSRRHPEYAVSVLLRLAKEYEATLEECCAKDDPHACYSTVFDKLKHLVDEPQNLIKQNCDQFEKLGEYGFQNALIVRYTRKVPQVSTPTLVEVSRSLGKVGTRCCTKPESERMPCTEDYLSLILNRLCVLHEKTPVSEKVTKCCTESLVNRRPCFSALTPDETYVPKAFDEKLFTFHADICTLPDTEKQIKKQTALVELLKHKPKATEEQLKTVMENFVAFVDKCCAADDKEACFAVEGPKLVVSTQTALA

B1: anti-GP73 monoclonal antibody 1B-4971 (antibody, V domains shown)
VH: QVQLQQSGPALVKPGASVKMSCKASGYTFTNYVIHWVKQKPGQGLERIGYIWPYNDGTKFNEKFKGKATLTSDKSSSTAYMELSSLTSEDSAVYYCSSQQLAYWGQGTTLTVSS
VL: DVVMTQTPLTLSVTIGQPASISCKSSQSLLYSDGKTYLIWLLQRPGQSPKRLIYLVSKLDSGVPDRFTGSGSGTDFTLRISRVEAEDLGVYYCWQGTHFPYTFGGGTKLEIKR
notes: Biotin labelled in some assays; also called mAb 1B-4971; 1B-4971-Bt
B1 was tested, and the “BSA Background OD (A492)” value (bovine serum albumin) was 0.1 OD (A492) and the binding result [1] was “binds”.

B2: anti-GP73 monoclonal antibody 1B-4863 (antibody, V domains shown)
VH: QVQLKESGPGLVAPSQSLSITCTVSGFSLTSYGVHWVRQSPGKGLEWLGVIWTGGSTNYNSALMSRLSISKDNSESQVFLKVNSLQTDDTGMYYCARDPGTDYFDYWGQGTTLTVSS
VL: DIVMTQSHKFMSTSIGDRVSISCKASQDVSIDVSWYQQKPGQSPTLLIYSASYRYIGVPDRFTGSGSGTAFTFTISSVQAEDLAIYYCQQHFTTPLTFGAGTKLELKR
notes: Biotin labelled in some assays; also called mAb 1B-4863; 1B-4863-Bt
In the case of B2, the binding result [2] is reported as “binds” and the “BSA Background OD (A492)” value (bovine serum albumin) is reported as 0.1 OD (A492).

B3: anti-GP73 monoclonal antibody 1B-3440 (antibody, V domains shown)
VH: EVQLVETGGGLVQPKGSLKLSCAASGFTFNTNAMNWVRQAPGKGLEWVARIRTKRYNYTTFYADSVKDRFTISRDDSQSMLFLQMNNLKTEDTAMYYCVTGGTGTFDYWGQGTTLTVSS
VL: EIVLTQSPTTMPASPGEKVTFTCSASSGISSNYLHWYQLKPGFSPKLLIYRTSNLASGVPARFSGGGSGTSYSLTIGTMEAEDVATYYCQQGFSIPLTFGAGTKLELKR
notes: Biotin labelled in some assays; also called mAb 1B-3440; 1B-3440-Bt
For B3, the “BSA Background OD (A492)” value (bovine serum albumin) was 0.12 OD (A492) and the binding result [1] was “binds”.
